Measurements taken from patent US20060292657A1, “Phex substrates and methods using same” (priority 2003, published 2006).
Several values for one entry are separate records, joined by “and”; a condition that tells them apart may be missing. Identical values can stand only once.

What was measured:
Abz-A110-WLDSGVQ-EDDnp = target: T1, Abz-A110-WLDSGVQ-EDDnp
T1 chain: AWLDSGVQ

Abz-D125-HLSDTSTQ-EDDnp = target: T2, Abz-D125-HLSDTSTQ-EDDnp
T2 chain: DHLSDTSTQ

Abz-DRRL-EDDnp = target: T3, Abz-DRRL-EDDnp
T3 chain: DRRL

Abz-G337-SNDIMGQ-EDDnp = target: T4, Abz-G337-SNDIMGQ-EDDnp
T4 chain: GSNDIMGQ

Abz-G386-SSDAAEQ-EDDnp = target: T5, Abz-G386-SSDAAEQ-EDDnp
T5 chain: GSSDAAEQ

Abz-GFSDYK(Dnp)-NH2 = target: T6, Abz-GFSDYK(Dnp)-NH2
T6 chain: GFSDYK

Abz-GFSDYK(Dnp)-OH = target: T7, Abz-GFSDYK(Dnp)-OH
T7 chain: GFSDYK

Abz-GFSDYQ-EDDnp = target: T8, Abz-GFSDYQ-EDDnp
T8 chain: GFSDYQ

Abz-GFSEYK(Dnp)-NH2 = target: T9, Abz-GFSEYK(Dnp)-NH2
T9 chain: GFSEYK

Abz-GFSEYK(Dnp)-OH = target: T10, Abz-GFSEYK(Dnp)-OH
T10 chain: GFSEYK

Abz-GP197-QRDSQAQ-EDDnp = target: T11, Abz-GP197-QRDSQAQ-EDDnp
T11 chain: GPQRDSQAQ

Abz-I232-PSDFEGQ-EDDnp = target: T12, Abz-I232-PSDFEGQ-EDDnp
T12 chain: IPSDFEGQ

Abz-L134-ELDSRQ-EDDnp = target: T13, Abz-L134-ELDSRQ-EDDnp
T13 chain: LELDSRQ

Abz-L94-MMDFRGQ-EDDnp = target: T14, Abz-L94-MMDFRGQ-EDDnp
T14 chain: LMMDFRGQ

Abz-N122-GYDVYHQ-EDDnp = target: T15, Abz-N122-GYDVYHQ-EDDnp
T15 chain: NGYDVYHQ

Abz-N449-EMDSFNQ-EDDnp = target: T16, Abz-N449-EMDSFNQ-EDDnp
T16 chain: NEMDSFNQ

[1] = target: T17, Abz-R175-RHTQSAEDDSERQ-EDDnp
T17 chain: RRHTQSAEDDSERQ

[2] = target: T18, Abz-R175-RHTRSAEDDSERQ-EDDnp
T18 chain: RRHTRSAEDDSERQ

Abz-R441-GLDNEIQ-EDDnp = target: T19, Abz-R441-GLDNEIQ-EDDnp
T19 chain: RGLDNEIQ

Abz-R506-RDDSSEQ-EDDnp = target: T20, Abz-R506-RDDSSEQ-EDDnp
T20 chain: RRDDSSEQ

Abz-R76-SEDAGFQ-EDDnp = target: T21, Abz-R76-SEDAGFQ-EDDnp
T21 chain: RSEDAGFQ

Abz-S212-AEDNSPQ-EDDnp = target: T22, Abz-S212-AEDNSPQ-EDDnp
T22 chain: SAEDNSPQ

Abz-S513-SDSGSQ-EDDnp = target: T23, Abz-S513-SDSGSQ-EDDnp
T23 chain: SSDSGSQ

Abz-T294-HLDTKKQ-EDDnp = target: T24, Abz-T294-HLDTKKQ-EDDnp
T24 chain: THLDTKKQ

B1: human recombinant secPHEX (pure soluble form of PHEX) (protein)
chain: SLQAKQEYCLKPECIEAAAAILSKVNLSVDPCDNFFRFACDGWISNNPIPEDMPSYGVYPWLRHNVDLKLKELLEKSISRRRDTEAIQKAKILYSSCMNEKAIEKADAKPLLHILRHSPFRWPVLESNIGPEGVWSERKFSLLQTLATFRGQYSNSVFIRLYVSPDDKASNEHILKLDQATLSLAVREDYLDNSTEAKSYRDALYKFMVDTAVLLGANSSRAEHDMKSVLRLEIKIAEIMIPHENRTSEAMYNKMNISELSAMIPQFDWLGYIKKVIDTRLYPHLKDISPSENVVVRVPQYFKDLFRILGSERKKTIANYLVWRMVYSRIPNLSRRFQYRWLEFSRVIQGTTTLLPQWDKCVNFIESALPYVVGKMFVDVYFQEDKKEMMEELVEGVRWAFIDMLEKENEWMDAGTKRKAKEKARAVLAKVGYPEFIMNDTHVNEDLKAIKFSEADYFGNVLQTRKYLAQSDFFWLRKAVPKTEWFTNPTTVNAFYSASTNQIRFPAGELQKPFFWGTEYPRSLSYGAIGVIVGHEFTHGFDNNGRKYDKNGNLDPWWSTESEEKFKEKTKCMINQYSNYYWKKAGLNVKGKRTLGENIADNGGLREAFRAYRKWINDRRQGLEEPLLPGITFTNNQLFFLSYAHVRCNSYRPEAAREQVQIGAHSPPQFRVNGAISNFEEFQKAFNCPPNSTMNRGMDSCRLW
Km (Abz-A110-WLDSGVQ-EDDnp): 1.5 µM | kcat (Abz-A110-WLDSGVQ-EDDnp): 0.04 s⁻¹ | kcat/Km (Abz-A110-WLDSGVQ-EDDnp): 26700 M⁻¹ s⁻¹ | Km (Abz-D125-HLSDTSTQ-EDDnp): 1.3 µM | kcat (Abz-D125-HLSDTSTQ-EDDnp): 0.1 s⁻¹ | kcat/Km (Abz-D125-HLSDTSTQ-EDDnp): 77000 M⁻¹ s⁻¹ | substrate hydrolysis (fluorescence) (Abz-DRRL-EDDnp): Neither enzyme hydrolyzed this substrate | Km (Abz-G337-SNDIMGQ-EDDnp): 13 µM | kcat (Abz-G337-SNDIMGQ-EDDnp): 0.01 s⁻¹ | kcat/Km (Abz-G337-SNDIMGQ-EDDnp): 800 M⁻¹ s⁻¹ | Km (Abz-G386-SSDAAEQ-EDDnp): 2.4 µM | kcat (Abz-G386-SSDAAEQ-EDDnp): 0.3 s⁻¹ | kcat/Km (Abz-G386-SSDAAEQ-EDDnp): 125000 M⁻¹ s⁻¹ | Km (Abz-GFSDYK(Dnp)-NH2): 53.2 µM | fold decrease in catalytic efficiency against Abz-GFSDYK(Dnp)-OH (Abz-GFSDYK(Dnp)-NH2): a 6-fold decrease in catalytic efficiency due to its low affinity for the enzyme | kcat (Abz-GFSDYK(Dnp)-NH2): 1.3 s⁻¹ | kcat/Km (Abz-GFSDYK(Dnp)-NH2): 24400 M⁻¹ s⁻¹ | Km (Abz-GFSDYK(Dnp)-OH): 3 µM and 5×10^-6 M and 10×10^-6 M, for secPHEX and membrane-bound PHEX, respectively | kcat (Abz-GFSDYK(Dnp)-OH): 0.5 s⁻¹ | kcat/Km (Abz-GFSDYK(Dnp)-OH): 167000 M⁻¹ s⁻¹ | substrate hydrolysis (fluorescence) (Abz-GFSDYK(Dnp)-OH): degradation of the substrate was observed | Km (Abz-GFSDYQ-EDDnp): 13.3 µM | kcat (Abz-GFSDYQ-EDDnp): 0.6 s⁻¹ | kcat/Km (Abz-GFSDYQ-EDDnp): 45100 M⁻¹ s⁻¹ | hydrolysis by PHEX (Abz-GFSEYK(Dnp)-NH2): Resistant | kcat/Km (pseudo first-order conditions) (Abz-GFSEYK(Dnp)-OH): 9000 M⁻¹ s⁻¹ | Km (Abz-GP197-QRDSQAQ-EDDnp): 47 µM | kcat (Abz-GP197-QRDSQAQ-EDDnp): 0.2 s⁻¹ | kcat/Km (Abz-GP197-QRDSQAQ-EDDnp): 4300 M⁻¹ s⁻¹ | kcat/Km (pseudo-first order conditions) (Abz-I232-PSDFEGQ-EDDnp): 80000 M⁻¹ s⁻¹ | Km (Abz-L134-ELDSRQ-EDDnp): 0.9 µM | kcat (Abz-L134-ELDSRQ-EDDnp): 0.05 s⁻¹ | kcat/Km (Abz-L134-ELDSRQ-EDDnp): 55500 M⁻¹ s⁻¹ | Km (Abz-L94-MMDFRGQ-EDDnp): 17 µM | kcat (Abz-L94-MMDFRGQ-EDDnp): 0.8 s⁻¹ | kcat/Km (Abz-L94-MMDFRGQ-EDDnp): 45000 M⁻¹ s⁻¹ | Km (Abz-N122-GYDVYHQ-EDDnp): 9 µM | kcat (Abz-N122-GYDVYHQ-EDDnp): 0.01 s⁻¹ | kcat/Km (Abz-N122-GYDVYHQ-EDDnp): 1100 M⁻¹ s⁻¹ | Km (Abz-N449-EMDSFNQ-EDDnp): 38 µM | kcat (Abz-N449-EMDSFNQ-EDDnp): 0.3 s⁻¹ | kcat/Km (Abz-N449-EMDSFNQ-EDDnp): 7900 M⁻¹ s⁻¹ | Km [1]: 1.7 µM | kcat [1]: 0.15 s⁻¹ | kcat/Km [1]: 88200 M⁻¹ s⁻¹ | Km [2]: 3 µM | kcat [2]: 0.2 s⁻¹ | kcat/Km [2]: 66700 M⁻¹ s⁻¹ | Km (Abz-R441-GLDNEIQ-EDDnp): 7 µM | kcat (Abz-R441-GLDNEIQ-EDDnp): 0.03 s⁻¹ | kcat/Km (Abz-R441-GLDNEIQ-EDDnp): 4300 M⁻¹ s⁻¹ | Km (Abz-R506-RDDSSEQ-EDDnp): 5.3 µM | kcat (Abz-R506-RDDSSEQ-EDDnp): 0.5 s⁻¹ | kcat/Km (Abz-R506-RDDSSEQ-EDDnp): 94300 M⁻¹ s⁻¹ | Km (Abz-R76-SEDAGFQ-EDDnp): 4.1 µM | kcat (Abz-R76-SEDAGFQ-EDDnp): 0.06 s⁻¹ | kcat/Km (Abz-R76-SEDAGFQ-EDDnp): 14600 M⁻¹ s⁻¹ | Km (Abz-S212-AEDNSPQ-EDDnp): 22 µM | kcat (Abz-S212-AEDNSPQ-EDDnp): 0.3 s⁻¹ | kcat/Km (Abz-S212-AEDNSPQ-EDDnp): 13600 M⁻¹ s⁻¹ | Km (Abz-S513-SDSGSQ-EDDnp): 31.6 µM | kcat (Abz-S513-SDSGSQ-EDDnp): 0.2 s⁻¹ | kcat/Km (Abz-S513-SDSGSQ-EDDnp): 7100 M⁻¹ s⁻¹ | Km (Abz-T294-HLDTKKQ-EDDnp): 15 µM | kcat (Abz-T294-HLDTKKQ-EDDnp): 0.02 s⁻¹ | kcat/Km (Abz-T294-HLDTKKQ-EDDnp): 1300 M⁻¹ s⁻¹
